pKd: −log10 of the molar value.
Biological target: recombinant hemagglutinin (HA) (A/New Caledonia/20/99; Protein Sciences) (influenza A virus A/New Caledonia/20/99 (H1N1))

Substance “plant-produced anti-influenza bnMAb CR6261 IgG1 (expressed in N. benthamiana) (antibody)” has a pKd of 10.26.
